Substrate: O=[N+]([O-])c1ccccc1O[C@@H]1O[C@H](CO)[C@H](O)[C@H](O)[C@H]1O
Experiment: purified protein
Assay type: biochemical, Paracoccus sp. 32d
Settings: 20 °C, 20 mM sodium phosphate pH 7.3, apparent Km, also measured at 10 and 30 °C

B1: BgaL; Paracoccus sp. 32d β-D-galactosidase (Paracoccus sp. 32d) (protein)
chain: MRVTQKLNHGWIFAEGAADPATPLAGETVTLPHNAVDLPLSYFDETSYQRAFTYQRVIAWDDAWQGRRVQLRFDGAMADNVVWVNGVQVVAHPDGYTPFVADLTDHLRPGDNLVTVRIDGSENPAIPPFGAQIDYLTYAGIYRDVWLMVLPERHLTNARILTPDALSDAKTVVIRPEVTAPGPVRARLLDGDREIAATEGEGELTLAGLTGLSLWSTDNPQLYTVELTLPDSGDVTTHRFGFRTAEWTPQGFLLNGQPMKLRGLNRHQSWAHQGYAAGRHAQERDAEIVRHDLCCNMVRTSHYPQSTWFLDRCDEIGLLVFEEIPGWQHIGDQAWQDRSVDNVRAMITRDWNHPSIVIWGVRINESPDNHDFYVRTNALARELDPTRAIGGVRCITDSEMLEDVYTMNDFILDESELPLINRPRTALRPTEEVTGIKKPVPYLVTEYNGHMFPTKAQDPELRQMEHVIRHLEVLNAAHGDPAISGCIGWCMFDYNTHKDFGAGDRICHHGVMDIWREPKFAAHAYGSQKPPSEGIVMEPVTFWARGERNIGGVLPLIVLTNCDEVEFECAGVTRRVGPDRERFPHLPRPPVIIDHRHISAEELGQWGMSWHPGRITGWLNGEQVALREYVADPLPTTLQIAPDRDTLPADGDIDLRVMLRALDQVGNRLPFLDAGIAVTVDGPARLIGPDLRMLQGGTTGMLLRLTGDAGTIRITARHPQFPEAVATVTVG
notes: E. coli LMG194, pBAD/Myc-His A with native stop codon (no tag), ion exchange purified; homodimer 161 kDa; GH2
Km: 1180 ± 60 µM | kcat: 138 ± 2.19 s⁻¹ | kcat/Km: 117000 M⁻¹ s⁻¹
